Positions count from the first letter of the chain named.
B1: T5: wheat EPSPS mutant, SEQ ID NO: 24, mutations L216(195)P and S269(247)G (protein)
chain: MATSVAAPAAPAGAEEVVLQPIREISGAVQLPGSKSLSNRILLLSALSEGTTVVDNLLNSEDVHYMLEALEALGLSVEADKVAKRAVVVGCGGRFPVEKDAKEEVKLFLGNAGTAMRPLTAAVVAAGGNATYVLDGVPRMRERPIGDLVVGLQQLGADVDCFLGTNCPPVRINGKGGLPGGKVKLSGSISSQYLSSLLMAAPLALEDVEIEIIDKPISVPYVEMTLKLMEHFGVTAEHSDSWDRFYIKGGQKYKSPGNAYVEGDASSAGYFLAGAAITGGTVTVEGCGTTSLQGDVKFAEVLEMMGAKVTWTDTSVTVTGPPRQPFGRKHLKAVDVNMNKMPDVAMTLAVVALFADGPTAIRDVASWRVKETERMVAIRTELTKLGATVEEGPDYCIITPPEKLNITAIDTYDDHRMAMAFSLAACAEVPVTIRDPGCTRKTFPNYFDVLSTFVKN
B2: T6: wheat EPSPS mutant, SEQ ID NO: 26, mutations L216(195)P, S269(247)G and P118(101)S (protein)
chain: B1 chain with P118S
B3: R0: wild-type rice EPSPS, amino acid sequence SEQ ID NO: 28; control (protein, listed as Oryza sativa)
chain: MASNAAAAAAKAEEIVLQPIREISGAVQLPGSKSLSNRILLLSALSEGTTVVDNLLNSEDVHYMLEALKALGLSVEADKVAKRAVVVGCGGKFPVEKDAKEEVQLFLGNAGTAMRPLTAAVTAAGGNATYVLDGVPRMRERPIGDLVVGLKQLGADVDCFLGTECPPVRVKGIGGLPGGKVKLSGSISSQYLSALLMAAPLALGDVEIEIIDKLISIPYVEMTLRLMERFGVKAEHSDSWDRFYIKGGQKYKSPGNAYVEGDASSASYFLAGAAITGGTVTVQGCGTTSLQGDVKFAEVLEMMGAKVTWTDTSVTVTGPPREPYGKKHLKAVDVNMNKMPDVAMTLAVVALFADGPTAIRDVASWRVKETERMVAIRTELTKLGASVEEGPDYCIITPPEKLNITAIDTYDDHRMAMAFSLAACADVPVTIRDPGCTRKTFPNYFDVLSTFVRN
B4: R2: rice EPSPS mutant, SEQ ID NO: 32, merely containing the mutation P116(101)S; control (protein)
chain: B3 chain with P116S
B5: R1: rice EPSPS mutant, SEQ ID NO: 30, mutation L214(195)P (protein)
chain: B3 chain with L214P

Each molecule was assayed on transgenic rice plants (assay: glyphosate resistance of the EPSPS mutant in transgenic rice plants sprayed with Roundup 41% ammonium glyphosate). Conditions: 1× dosage 1060 g/hectare glyphosate sprayed; recorded on 10th day.
Format: in vivo, rice (Nipponbare)
Method in brief: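 EPSPS mutant genes were cloned into pGVP1 and introduced into Nipponbare rice embryo-derived calluses via Agrobacterium EHA105 (OD 0.2, 10 min infection, 2–3 days co-culture at 25 °C in the dark). Calluses went through recovery, two 14-day screening rounds at 30 °C, two differentiation rounds and rooting to regenerate transgenic plants.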

Compared with B1, B2 is higher in “%++&+++ (percentage of plant having medium and high glyphosate resistance to the total number of plants observed)” value: 45.5% for the first, 85.9% for the second.

Going from B3 to B4, the “%++&+++ (percentage of plant having medium and high glyphosate resistance to the total number of plants observed)” value rises from 0.0% to 81.0%.

B5 was tested, and the “%++&+++ (percentage of plant having medium and high glyphosate resistance to the total number of plants observed)” value was 63.2%.

Going from B1 to B2, the “number of plants denoted by + (low glyphosate resistance)” value (from here on “number … (low glyphosate resistance)”) rises from 6 to 7.

First: B3
Second: B4
The “number … (low glyphosate resistance)” value of the first is lower: 1 for the first, 9 for the second.

In the case of B5, the “number … (low glyphosate resistance)” value is reported as 1.

First: B1
Second: B2
The “number of plants denoted by ++ (medium glyphosate resistance)” value (“number … (medium glyphosate resistance)” for short) of the first is lower: 3 for the first, 15 for the second.

Compared with B3, B4 is higher in “number … (medium glyphosate resistance)” value: 0 for the first, 10 for the second.

In the case of B5, the “number … (medium glyphosate resistance)” value is reported as 1.

First: B1
Second: B2
The “number of plants denoted by +++ (high glyphosate resistance)” value (“number of plants denoted by +++” for short) of the first is lower: 7 for the first, 52 for the second.

Going from B3 to B4, the “number of plants denoted by +++” value rises from 0 to 37.

B5 was tested, and the “number of plants denoted by +++” value was 11.

Going from B1 to B2, the “number of plants denoted by − (no glyphosate resistance)” value (“number … (no glyphosate resistance)” below) falls from 6 to 4.

Compared with B3, B4 is lower in “number … (no glyphosate resistance)” value: 30 for the first, 2 for the second.

With B5 the “number … (no glyphosate resistance)” value was 6.

Same assay, conditions: 1× glyphosate dosage

With B1 the “glyphosate resistance / survival of the rice transformed by the EPSPS, in words” value (shortened to “glyphosate resistance / survival”) was “obviously superior to that of the rice seedlings transformed by T0”.
In the case of B2, the “glyphosate resistance / survival” value is reported as “had relatively high resistance to glyphosate”.
For B3, the “glyphosate resistance / survival” value was “had no resistance, one was seriously damaged, and all the others died”.
With B4 the “glyphosate resistance / survival” value was “had relatively high resistance to glyphosate”.
In the case of B5, the “glyphosate resistance / survival” value is reported as “obviously superior to that of the rice seedlings transformed by R0”.

Same assay, conditions: 2× dosage 2120 g/hectare sprayed to plants surviving 1×; recorded 10 days later

First: B1
Second: B2
The “%++&+++ (percentage of plant having medium and high glyphosate resistance to the total number of plants observed)” value of the first is higher: 84.6% for the first, 0.0% for the second.

First: B3
Second: B4
The “%++&+++ (percentage of plant having medium and high glyphosate resistance to the total number of plants observed)” value of the first is higher: 45.8% for the first, 26.8% for the second.

With B5 the “%++&+++ (percentage of plant having medium and high glyphosate resistance to the total number of plants observed)” value was 55.2%.

Compared with B1, B2 is lower in “number … (low glyphosate resistance)” value: 8 for the first, 4 for the second.

First: B3
Second: B4
The “number … (low glyphosate resistance)” value of the first is lower: 0 for the first, 17 for the second.

For B5, the “number … (low glyphosate resistance)” value was 3.

First: B1
Second: B2
The “number … (medium glyphosate resistance)” value of the first is lower: 4 for the first, 25 for the second.

First: B3
Second: B4
The “number … (medium glyphosate resistance)” value of the first is lower: 0 for the first, 18 for the second.

For B5, the “number … (medium glyphosate resistance)” value was 10.

Compared with B1, B2 is higher in “number of plants denoted by +++” value: 0 for the first, 41 for the second.

Going from B3 to B4, the “number of plants denoted by +++” value rises from 0 to 14.

For B5, the “number of plants denoted by +++” value was 1.

Compared with B1, B2 is lower in “number … (no glyphosate resistance)” value: 10 for the first, 8 for the second.

Going from B3 to B4, the “number … (no glyphosate resistance)” value falls from 31 to 9.

In the case of B5, the “number … (no glyphosate resistance)” value is reported as 10.

Same assay, conditions: 2× glyphosate dosage

With B1 the “glyphosate resistance / survival” value was “some of the transgenic rice seedlings transformed by T4, T1 and T5 still survived”.
For B4, the “glyphosate resistance / survival” value was “had relatively high resistance to glyphosate”.
In the case of B5, the “glyphosate resistance / survival” value is reported as “some of the transgenic rice seedlings transformed by R1 and R4 still survived”.

Same assay, conditions: 5× dosage 5300 g/hectare sprayed to plants surviving 2×; recorded 10 days later

Compared with B1, B2 is higher in “&++&+++ (percentage of plant having medium and high glyphosate resistance to the total number of plants observed)” value: 18.2% for the first, 76.9% for the second.

First: B3
Second: B4
The “&++&+++ (percentage of plant having medium and high glyphosate resistance to the total number of plants observed)” value of the first is lower: 0.0% for the first, 3.4% for the second.

With B5 the “&++&+++ (percentage of plant having medium and high glyphosate resistance to the total number of plants observed)” value was 4.2%.

First: B1
Second: B2
The “number … (low glyphosate resistance)” value of the first is lower: 5 for the first, 9 for the second.

Compared with B3, B4 is higher in “number … (low glyphosate resistance)” value: 0 for the first, 40 for the second.

For B5, the “number … (low glyphosate resistance)” value was 9.

First: B1
Second: B2
The “number … (medium glyphosate resistance)” value of the first is lower: 4 for the first, 37 for the second.

Going from B3 to B4, the “number … (medium glyphosate resistance)” value rises from 0 to 2.

With B5 the “number … (medium glyphosate resistance)” value was 1.

Compared with B1, B2 is higher in “number of plants denoted by +++” value: 0 for the first, 23 for the second.

B3 and B4 are the same in “number of plants denoted by +++” value: 0 for the first, 0 for the second.

With B5 the “number of plants denoted by +++” value was 0.

Going from B1 to B2, the “number … (no glyphosate resistance)” value falls from 13 to 9.

Going from B3 to B4, the “number … (no glyphosate resistance)” value falls from 31 to 16.

With B5 the “number … (no glyphosate resistance)” value was 14.

Same assay, conditions: 5× glyphosate dosage

B1 was tested, and the “glyphosate resistance / survival” value was “some of the transgenic rice seedlings transformed by T4, T1 and T5 still survived”.
B5 was tested, and the “glyphosate resistance / survival” value was “some of the transgenic rice seedlings transformed by R1 and R4 still survived”.

Same assay, conditions: 20× dosage 21200 g/hectare sprayed to plants surviving 5×; recorded 10 days later

First: B1
Second: B2
The “&++&+++ (percentage of plant having medium and high glyphosate resistance to the total number of plants observed)” value of the first is lower: 13.6% for the first, 71.8% for the second.

B3 and B4 are the same in “&++&+++ (percentage of plant having medium and high glyphosate resistance to the total number of plants observed)” value: 0.0% for the first, 0.0% for the second.

B5 was tested, and the “&++&+++ (percentage of plant having medium and high glyphosate resistance to the total number of plants observed)” value was 0.0%.

Going from B1 to B2, the “number … (low glyphosate resistance)” value rises from 3 to 7.

Compared with B3, B4 is higher in “number … (low glyphosate resistance)” value: 0 for the first, 1 for the second.

B5 was tested, and the “number … (low glyphosate resistance)” value was 4.

Compared with B1, B2 is higher in “number … (medium glyphosate resistance)” value: 3 for the first, 56 for the second.

B3 and B4 are the same in “number … (medium glyphosate resistance)” value: 0 for the first, 0 for the second.

For B5, the “number … (medium glyphosate resistance)” value was 0.

B1 and B2 are the same in “number of plants denoted by +++” value: 0 for the first, 0 for the second.

B3 and B4 are the same in “number of plants denoted by +++” value: 0 for the first, 0 for the second.

For B5, the “number of plants denoted by +++” value was 0.

Compared with B1, B2 is lower in “number … (no glyphosate resistance)” value: 16 for the first, 15 for the second.

First: B3
Second: B4
The “number … (no glyphosate resistance)” value of the first is lower: 31 for the first, 57 for the second.

With B5 the “number … (no glyphosate resistance)” value was 20.

Same assay, conditions: 20× glyphosate dosage

B5 was tested, and the “glyphosate resistance / survival” value was “some of the transgenic rice seedlings transformed by R1 and R4 still survived”.

Source: US11584938B2, “Plant EPSPS mutant containing L195P and S247G mutations and encoding gene and use thereof” (GEVOTO LLC, priority 2017, dated 2023)
